# Reference: publication PMC3905845, “Intracellular dynamics of archaeal FANCM homologue Hef in response to halted DNA replication” (Nucleic Acids Research, 2013)
# B1: Haloferax volcanii Hef protein (helicase-associated endonuclease fork-structure DNA), full length with a six-histidine tag (natural protein, UniProt D4GYC2 1-858, looked up)
# chain: MSASEDVAYVDHPLLAPSFIERRLYQIRLAGTARDGHTLVCLPTGLGKTTVSLLVTAQRLHDVGGKSLFLAPTKPLVQQHADFYREALTVPDDEIVVFTGDVRPDDRAELWQEAQIVIATPQVIENDLIGNRISLRDVTHLTFDECHRASGDYAYVYIAERYHAAAENPLVTGMSASPGGDEEAILEVCENLGIVDVEVMTEEDADVSEYTHDTDVEWNRIQLPDEILEIRDALNEVITDRLEKLKQLGVTKSTKPDISQKKLNRMRAELQRLMNADKSEGYKGMSTHAEVMKLRRAVELVETQSVESVRRYFERQRNAARSSGASKASQRLVAEPKVREAMRKAESFDGLHPKFRKTRILLAETLGIQNGERVIVFTESRDTAEALTEFLSESFSVRRFVGQGDREGSDGMTQNEQQETLDKFRNGEFEVLVSTSVAEEGLDVPEVDLVLFFEPVPTAIRSIQRKGRTGRQADGRVVVLLAEDTRDEAYFWISRRREKTMQNELRDLKGAADDLEAELDPSQRDLSAFAGDDASSAGSAGSSTRNEGVDVASEGDANGASATASSASNGRTATAAATDSDGQSGLADFGPSDEALARADDGDDSHGEDADPADSGDDPASDAEGDEVDDSATVAAAGTDDEDTVEIVVDQRELDSNIARTLSKREDLTTRLETLAVGDYVLSDRVAVERKSVSDFLDTLTGGDRSIFEQIADLTRHYARPLLVIEGRGLYEERNIHPGAIRGALSSVAVDFNVSVLFTEDEDDTAELLATIATREQTDRERTVSVHGGKSAKTLDEQQEYVVSAIADIGPVTARTLLEAFGSVEAVMTANEEDLKEVRGVGQVTAERIREVVGSEYR
# notes: Hef helicase/endonuclease of the XPF/MUS81/FANCM family, Haloferax volcanii; full-length protein; predicted monomeric molecular mass 93.95 kDa; hef amplified from plasmid pTA1097 and cloned into pTA963 (PciI-EcoRI); also called HvoHef; Hef holoprotein; source: H. volcanii (native host, strain lacking hef, tryptophan-induced), purified (Ni-NTA agarose, S-200 gel filtration)
# Biological target: the molecule itself
# Experiment: AUC; sedimentation velocity (0.9, 1 and 1.6 mg/ml) and sedimentation equilibrium (0.6 or 1 mg/ml) at 20°C in buffer C (2M KCl, 10 mM Hepes, pH 7.0), absorbance at 280 nm; SEDFIT and SEDPHAT
protein,measurement,value
B1,stoichiometry N,2
